{
  "source": "paper PMC7453904",
  "about": "“Intrahepatic heteropolymerization of M and Z alpha-1-antitrypsin” (JCI Insight, 2020)",
  "molecules": {"B1": {"name": "monoclonal antibody mAb2H2 (antibody, V domains shown)", "VH": "EVQLEESGGGLVKPGGSLKLSCAASGFAFSIYDMSWVRQTPEKRLEWVAYISSGGGTTYYPDTVKGRFTISRDNAKNTLYLQMSSLKSEDTAIYYCARHAGVHYWGQGTTLTVSS", "VL": "DIVMTQSPSSMYASLGERVTITCKASQDINSYLSWFQQKPGKSPKNLIYRANRLVDGVPSRFSGSGSGQDYSLTISSLEYEDMGIYYCLQYDEFPWTFGGGTKLESK", "notes": "Whole mouse monoclonal antibody; Raised against heat-induced and denaturant-induced polymers of plasma A1AT; also called clone 2H2; source: hybridoma from splenocytes of immunized BALB/c mice; in culture medium (screen) and purified (HiTrap Protein G)"}},
  "key": {"[1]": {"target": "Z A1AT subunit of MZ heterozygote liver polymers (human (endogenous in liver tissue))", "experiment": "negative-stain electron microscopy of liver polymers; polymers formed in vivo, extracted from inclusion bodies of explant liver and purified; imaged with and without Fab2H2, which marks M subunits; subunits counted"}, "[2]": {"target": "T1, plasma-purified monomeric native M alpha-1-antitrypsin (Homo sapiens (Human)., UniProt P01009)", "T1 construct": "Plasma glycoprotein; also called M A1AT; native M A1AT", "T1 sequence (P01009 25-418)": "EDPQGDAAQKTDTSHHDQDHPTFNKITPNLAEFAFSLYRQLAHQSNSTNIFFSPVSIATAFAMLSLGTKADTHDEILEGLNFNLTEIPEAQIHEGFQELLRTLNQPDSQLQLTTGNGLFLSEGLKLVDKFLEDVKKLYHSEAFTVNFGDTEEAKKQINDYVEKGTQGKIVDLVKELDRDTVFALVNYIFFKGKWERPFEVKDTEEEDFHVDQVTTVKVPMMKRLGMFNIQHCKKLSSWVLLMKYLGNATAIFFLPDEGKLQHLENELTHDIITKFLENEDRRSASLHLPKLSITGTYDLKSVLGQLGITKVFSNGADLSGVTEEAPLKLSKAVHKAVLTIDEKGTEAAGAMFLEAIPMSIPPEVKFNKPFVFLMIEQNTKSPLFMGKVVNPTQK", "experiment": "SPR; Biacore T100; mAb2H2 amine-coupled to a CM5 chip; A1AT analytes 0–2 μM in PBS with 0.05% v/v Tween-20 at 30 μL/min; maximal responses fit by a hyperbolic function", "conditions": "both partners purified"}},
  "data": [
    {"molecule": "Z A1AT subunit of MZ heterozygote liver polymers (natural protein)", "values": [
      {"measurement": "mean length in subunits of circular polymers without a detectable M component", "setting": "[1]", "value": 6.6, "unit": "subunits"},
      {"measurement": "mean length in subunits of linear polymers without a detectable M component", "setting": "[1]", "value": 6.5, "unit": "subunits"}
    ]},
    {"molecule": "B1", "values": [
      {"measurement": "Kd", "setting": "[2]", "value": 447, "unit": "nM"}
    ]}
  ]
}
